Test [1] concerns the target T1, endogenous human CD45 at the cell-surface (Homo sapiens, UniProt P08575-4).
T1 construct: human CD45 as expressed on NK cell-lines and CD8+ T cells; also called endogenous CD45; source: endogenous, on YTS and NK92 cells and on primary human CD8+ T cells
Nature of the test: flow cytometry on cells; nanobodies incubated with YTS or NK92 cells (CD45+) or Expi293F cells (CD45-); detected with anti-VHH-Alexa Fluor 647. Particulars: one partner purified.

For test [2], the target named is T2, recombinant fragment of the d1 and d2 domains of human CD45 linked to an AviTag (Homo sapiens, biotin (site-specific, on the AviTag)).
T2 construct: human CD45, extracellular domains d1 and d2; Glycosylated; Construct limits may be in the supplementary Methods; also called CD45d1d2; biotinylated human CD45 domains 1 and 2; source: Expi293F cells, purified
T2 chain: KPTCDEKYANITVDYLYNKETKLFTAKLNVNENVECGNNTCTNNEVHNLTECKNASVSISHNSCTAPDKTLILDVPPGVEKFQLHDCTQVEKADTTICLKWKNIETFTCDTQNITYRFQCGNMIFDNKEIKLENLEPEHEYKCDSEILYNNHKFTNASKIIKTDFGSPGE
The test is described as follows: ELISA; nanobodies coated on a plate, incubated with the indicated concentration of biotinylated CD45d1d2; colorimetric detection, absorbance at 450 nm. Particulars: both partners purified. For orientation: In an ELISA, binding on a coated surface is turned into a signal by an enzyme label.

T1 sequence (P08575 26-1306): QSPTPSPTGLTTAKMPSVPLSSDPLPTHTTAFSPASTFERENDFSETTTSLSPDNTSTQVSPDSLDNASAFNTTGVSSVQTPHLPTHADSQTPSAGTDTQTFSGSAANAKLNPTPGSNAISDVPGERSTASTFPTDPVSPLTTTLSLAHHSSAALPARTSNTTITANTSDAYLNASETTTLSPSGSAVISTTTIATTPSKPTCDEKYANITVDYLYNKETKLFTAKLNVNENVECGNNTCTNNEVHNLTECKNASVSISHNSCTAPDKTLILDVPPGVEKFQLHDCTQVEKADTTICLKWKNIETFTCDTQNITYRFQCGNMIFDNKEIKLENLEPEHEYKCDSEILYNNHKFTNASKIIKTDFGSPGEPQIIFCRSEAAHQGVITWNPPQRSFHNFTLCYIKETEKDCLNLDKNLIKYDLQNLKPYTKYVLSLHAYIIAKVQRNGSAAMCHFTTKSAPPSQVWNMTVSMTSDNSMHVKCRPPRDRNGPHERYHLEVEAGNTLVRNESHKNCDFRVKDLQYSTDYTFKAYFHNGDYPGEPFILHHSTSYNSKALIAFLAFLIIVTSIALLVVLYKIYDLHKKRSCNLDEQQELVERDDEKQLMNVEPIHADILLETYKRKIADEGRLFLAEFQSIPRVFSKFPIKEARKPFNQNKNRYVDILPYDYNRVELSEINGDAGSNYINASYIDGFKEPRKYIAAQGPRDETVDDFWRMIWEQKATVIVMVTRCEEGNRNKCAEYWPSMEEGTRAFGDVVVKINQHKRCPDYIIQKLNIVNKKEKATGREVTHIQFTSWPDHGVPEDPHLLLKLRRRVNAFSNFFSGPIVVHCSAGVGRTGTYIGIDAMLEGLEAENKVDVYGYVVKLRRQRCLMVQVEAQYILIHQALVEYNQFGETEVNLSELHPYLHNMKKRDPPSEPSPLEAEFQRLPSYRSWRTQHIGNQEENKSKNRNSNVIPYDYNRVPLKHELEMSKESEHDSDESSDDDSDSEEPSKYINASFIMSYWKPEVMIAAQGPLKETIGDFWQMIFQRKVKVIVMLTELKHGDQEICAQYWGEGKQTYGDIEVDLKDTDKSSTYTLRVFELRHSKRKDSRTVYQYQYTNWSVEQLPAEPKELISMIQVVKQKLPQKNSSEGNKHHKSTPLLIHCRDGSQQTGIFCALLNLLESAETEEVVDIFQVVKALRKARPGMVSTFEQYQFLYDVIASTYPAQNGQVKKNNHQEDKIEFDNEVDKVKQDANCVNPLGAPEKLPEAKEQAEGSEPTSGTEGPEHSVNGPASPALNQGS

B1: anti-CD45 nanobody 2H5 with C-terminal SpyTag003 (VHH)
VHH: QVQLQESGGGLVQTGGSLTLSCVASGGTFSSYAMGWFRQAPGKEREFVAAIGGSGDSTYYADSVKGRFTISRDNAKNSVYLQMNSLKPEDTAVYYCQADPTMFHKLYYGINPNEYDYWGQGTLVTVSS
notes: constructs are in the supplementary Methods; also called 2H5 nanobody
As for B1, the binding result in test [1] and in test [2] was “binds” throughout.

Values taken from article doi:10.1101/2025.06.14.659678, “NanoBondy reacting through NeissLock anhydride allows covalent immune cell decoration” (bioRxiv, 2025).
